# Publication doi:10.1101/2023.09.18.558202 (bioRxiv, 2023)
# B1: F420-dependent methylene-tetrahydromethanopterin reductase (Mer) from Methanocaldococcus jannaschii (enzyme, UniProt Q58929 1-331, looked up)
# chain: MKFGIEFVPNEPIQKLCYYVKLAEDNGFEYCWITDHYNNRNVYMALTAIAMNTNKIKLGPGVTNPYVRSPAITASAIATLDELSGGRAVLGIGPGDKATFDALGIEWVKPVTTLKESIEVIRKLLAGERVSYEGKVVKIAGAALAVKPIQKAVPVYMGAQGPKMLETAGMIADGVLINASNPKDFEAAIPLIKKGAEAAGRSMDEIDVAAYACMSVDKNADKAKQAAVPVVAFIAAGSPPVVLERHGIDMEKVEAIRNALKSGNFPEAFKNVDDTMLEAFSIYGTPEDVVEKCKKLAEMGVTQIVAGSPIGPNKETAIKLIGKKVIPALKE
# Target: the molecule itself
# Assay: SEC
protein,measurement,value
B1,stoichiometry N,2
